Source: the supplement of paper PMC10724198
± gives the standard deviation of the averaged measurements.

Test system: Saccharomyces cerevisiae
Experiment: protein stability index of tFT-peptide fusion (C-terminal peptide) (PSI (0-1 scale)); higher = more stable (slower turnover)
Settings: genetic background: wild type; temperature: 30 C
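Further: PSI is a weighted mean of sequencing reads over stability bins, variants kept only with over 10 reads, mCherry proximal and sfGFP distal, peptide attached via GGGS linker.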

Sequence | protein stability index
KKNKKKNRTKIE | 0.657 ± 0.022
KKNMIIRVMIGV | 0.495 ± 0.074
KKQEKKKNKNDR | 0.646 ± 0.028
KKQKEKEKLVYC | 0.733 ± 0.085
KKQNRTRLKKSK | 0.702 ± 0.03
KKQQTIKKKKKR | 0.7014 ± 0.003
KKRHERNYLVQS | 0.662 ± 0.066
KKRRTCPNRRDK | 0.554 ± 0.036
KKRTQKKKKYNR | 0.6943 ± 0.0063
KKSRLNRIVMRH | 0.664 ± 0.073
KKTEKKYNRNRG | 0.786 ± 0.1
KKTKKKRGEYKK | 0.714 ± 0.017
KKTLIQKEQIRR | 0.644 ± 0.022
KLKDRRKNTEEI | 0.6961 ± 0.0033
KLKKNKTREMET | 0.789 ± 0.018
KLNLKVRKRERP | 0.66971 ± 0.00065
KLPRPPQRLRLP | 0.684 ± 0.066
KLQKINKIKNEI | 0.685 ± 0.032
KLSIWRADKDLE | 0.688 ± 0.015
KLSTGRGRTGYV | 0.698 ± 0.072
KLVKWEGGYIVS | 0.61 ± 0.019
KMGRTEIWTIHL | 0.685 ± 0.053
KMSEERIGIEKN | 0.7038 ± 0.0029
KMYKRPNYQKTK | 0.64 ± 0.024
KNGQGQRKIPGK | 0.721 ± 0.023
KNITIKKSKIKD | 0.61 ± 0.055

Sequence | protein stability index
KNKKNKCNKVKK | 0.726 ± 0.024
KNKKYKNKQKQR | 0.714 ± 0.094
KNKMGRKYTLPH | 0.654 ± 0.081
KNKTKQKTRTET | 0.704 ± 0.013
KNKTLNKIIRLP | 0.717 ± 0.042
KNKTTKKRKKRP | 0.695 ± 0.057
KNNITTTNKRMK | 0.679 ± 0.0071
KNRAEMREGIAL | 0.63 ± 0.018
KNRENNTKIEIQ | 0.661 ± 0.014
KPALPPITPNLC | 0.6727 ± 0.0036
KPQAGPSRHPPS | 0.759 ± 0.064
KQGHNEIMTKGK | 0.6814 ± 0.0015
KQIPLFILRPQT | 0.704 ± 0.1
KQKARRARGKEG | 0.65 ± 0.024
KQQCKTGRRRLV | 0.716 ± 0.072
KQQRTKKKEKKR | 0.628 ± 0.097
KQRSKKCRETYR | 0.729 ± 0.019
KQRTMNKVSKEK | 0.683 ± 0.045
KQTICNTGPQWV | 0.6267 ± 0.0022
KREKGLKQIVRL | 0.6827 ± 0.0029
KRESETPKKHRK | 0.711 ± 0.068
KRGRGPQFCDLY | 0.693 ± 0.045
KRIQGEICVPGA | 0.682 ± 0.041
KRITRKRIKRRR | 0.7772 ± 0.0015
KRKDKKKKYIRK | 0.759 ± 0.085
KRRKKKSKERER | 0.672 ± 0.015

Sequence | protein stability index
KRRNKTNREDTM | 0.68 ± 0.052
KRTKKKKKMELE | 0.719 ± 0.013
KRYRLRVKIGNT | 0.5291 ± 0.0046
KSAPAIRASRPR | 0.715 ± 0.0064
KSEGKKHIDKKR | 0.63 ± 0.034
KSEKKKKRKEKK | 0.718 ± 0.052
KSGLMFCIGDWC | 0.7 ± 0.044
KSKGVRITKVSN | 0.783 ± 0.02
KSKIKKKKQTKR | 0.652 ± 0.051
KSRKEREKSDNQ | 0.678 ± 0.037
KSSNIDINCNQN | 0.691 ± 0.053
KSVMVLRLLELK | 0.636 ± 0.032
KSVPLCSLGTTG | 0.6726 ± 0.0036
KSVQEPTPRKYR | 0.674 ± 0.026
KSVSIKGKFTSK | 0.6494 ± 0.00087
KTCGVGLDRMIG | 0.714 ± 0.0099
KTKKKQKQHRKQ | 0.686 ± 0.033
KTKVIFMYKKGQ | 0.675 ± 0.021
KTMCNNLTKLQR | 0.622 ± 0.029
KTNKKTIVKSQT | 0.674 ± 0.046
KTQKYEIKNLKK | 0.581 ± 0.082
KTRQSNAPRRTF | 0.707 ± 0.0091
KVGQWLRGKSKR | 0.7171 ± 0.00075
KVNKKKVITKQE | 0.713 ± 0.027
KVQRINNKKERK | 0.677 ± 0.044
KVWQISEVGAGY | 0.617 ± 0.024

Sequence | protein stability index
KYGTPFPPEVEM | 0.718 ± 0.034
KYNKQRQTRIET | 0.663 ± 0.019
LAARHLNFPPIL | 0.711 ± 0.009
LACTGFPPPFPL | 0.675 ± 0.017
LADFLGVSLLAV | 0.5695 ± 0.0031
LAFSGAWGILPL | 0.682 ± 0.067
LAHRASICLARL | 0.695 ± 0.063
LALEVSNLSCSV | 0.696 ± 0.022
LALFDPAQRHAR | 0.704 ± 0.052
LALWNGVSMEEE | 0.654 ± 0.039
LALYISFGLSLI | 0.526 ± 0.031
LALYPYIPDSPF | 0.636 ± 0.048
LAPPPPAPPMSP | 0.717 ± 0.013
LAPPVRECPFML | 0.692 ± 0.072
LAPSPPPPPLPL | 0.677 ± 0.01
LAPSPTSRPIKC | 0.677 ± 0.018
LAPTPLAPSPPP | 0.728 ± 0.055
LARTSVACEGLG | 0.703 ± 0.045
LASLVANSRNSL | 0.798 ± 0.27
LATLLIRLLGQA | 0.496 ± 0.0088
LCAGASYTMTVP | 0.694 ± 0.021
LCCMFGLAGRGV | 0.654 ± 0.0083
LCFPHDFFSSSS | 0.7768 ± 0.0058
LCGALWGAARGE | 0.728 ± 0.019
LCKGCEGGVMQR | 0.666 ± 0.037
LCPSLSSPTSAT | 0.659 ± 0.029

Sequence | protein stability index
LCPWRYAVLFSP | 0.645 ± 0.068
LCRFPSSPQLPS | 0.7236 ± 0.0071
LCRLTNVCGAVV | 0.6543 ± 0.004
LCSPKPASAPGH | 0.668 ± 0.032
LCVLFVSKPTPE | 0.67 ± 0.019
LDLVFYMFSPFL | 0.618 ± 0.061
LDTRTLGVLTVG | 0.633 ± 0.025
LDVGSFLALRMR | 0.627 ± 0.036
LEPSDMDTDSDG | 0.706 ± 0.018
LESCFFGSFFFL | 0.778 ± 0.091
LESGSARLFLWI | 0.746 ± 0.16
LEVVVVGGVGGG | 0.687 ± 0.085
LFAHPPSPPSAP | 0.654 ± 0.016
LFCHHCASLVDL | 0.722 ± 0.002
LFDRFVAGVRYG | 0.656 ± 0.021
LFFFPRRLSPPT | 0.722 ± 0.05
LFFRLRSLLSRS | 0.623 ± 0.0063
LFGIGFFSFICS | 0.537 ± 0.074
LFGTGVRCGVCS | 0.637 ± 0.092
LFHHLAPRPAPP | 0.698 ± 0.051
LFIGLAAVHAHY | 0.687 ± 0.11
LFLFAPRPPPPP | 0.717 ± 0.03
LFLSIRRFRCRL | 0.58 ± 0.057
LFPALFWPTSTL | 0.743 ± 0.032
LFQKRAIGGAWL | 0.742 ± 0.039
LFRFFPWPPPPA | 0.682 ± 0.034

Sequence | protein stability index
LFRPTPPSFAPP | 0.683 ± 0.048
LFSARRKSPTSL | 0.708 ± 0.058
LFSGPYRYKAYM | 0.7273 ± 0.0061
LFSSLLLPNALR | 0.69 ± 0.038
LFVHTPCPFEVR | 0.673 ± 0.023
LFWFVSLWGGFA | 0.529 ± 0.073
LFYYLFRYFFPP | 0.548 ± 0.0094
LGAWAGGGASSG | 0.704 ± 0.03
LGEDRVKYQKLW | 0.7234 ± 0.007
LGFGCVYCGEAW | 0.689 ± 0.033
LGFLSSLLCRSL | 0.779 ± 0.068
LGGASNGCSTLK | 0.718 ± 0.091
LGGAVLSRFGAR | 0.738 ± 0.047
LGGGGGVECRVG | 0.672 ± 0.058
LGGGGRGFAGRK | 0.618 ± 0.029
LGGGSGCVEGGL | 0.713 ± 0.082
LGGRNNRQMSSG | 0.678 ± 0.11
LGGVGSSGDVVA | 0.648 ± 0.017
LGGWWVWSWGRG | 0.66 ± 0.023
LGHVHLIGDIVC | 0.7042 ± 0.0039
LGKAVSDMDETH | 0.687 ± 0.026
LGLMSSCFSMWC | 0.657 ± 0.15
LGLSLPCRGFTL | 0.682 ± 0.0073
LGMMIPQILDFV | 0.586 ± 0.014
LGNFENDEGSQK | 0.735 ± 0.026
LGRCSTLLYCGP | 0.669 ± 0.03

Sequence | protein stability index
LGRGRGGPLSGG | 0.7014 ± 0.003
LGRPCGGVAGEQ | 0.637 ± 0.014
LGRSGCRGGYVG | 0.622 ± 0.014
LGRSRYADVQFC | 0.77 ± 0.021
LGSGGLMEPWCG | 0.644 ± 0.11
LGSGSTQGWAGG | 0.667 ± 0.035
LGVGGGGRGVRG | 0.728 ± 0.12
LGVGGRWVAPGA | 0.678 ± 0.094
LGVLGGWRRFGV | 0.72 ± 0.031
LGVLRALLGEGM | 0.688 ± 0.033
LGVWGGGRGVRG | 0.7206 ± 0.0051
LHAHTAPAHPKT | 0.689 ± 0.0087
LHGDLLFSVYVL | 0.597 ± 0.083
LHHPPSTHRGPD | 0.711 ± 0.004
LHLRPPHPPLPS | 0.717 ± 0.015
LHLVRLEGEECL | 0.677 ± 0.027
LHLYPSLLLPGL | 0.742 ± 0.074
LHPLHSSSPRVS | 0.704 ± 0.026
LHPPHPPPSPPP | 0.626 ± 0.1
LHPPLTLTFYLS | 0.555 ± 0.0089
LHPPRPTPKHPA | 0.608 ± 0.0093
LHPSPPSPLPPP | 0.723 ± 0.028
LHPSPQRHKTLQ | 0.743 ± 0.017
LHRLRLASRAAL | 0.719 ± 0.068
LHSPATAPHRPP | 0.67 ± 0.022
LHSRLPPCRRHV | 0.674 ± 0.021

Sequence | protein stability index
LHTLPLVLSLPA | 0.534 ± 0.025
LHTSTRPLPPTS | 0.675 ± 0.067
LIFLPPSPLPLS | 0.709 ± 0.085
LIGICCDSGSHC | 0.691 ± 0.057
LIIRTWEQILSP | 0.692 ± 0.058
LILLTVGSPRSG | 0.686 ± 0.013
LIPLVFAPSLVL | 0.769 ± 0.093
LIQKANGRIRRG | 0.763 ± 0.02
LIRRTECPRSTS | 0.6782 ± 0.0048
LISLERRGVAGR | 0.657 ± 0.043
LIVFSFLSCPVP | 0.5234 ± 0.0013
LIVWAGACGVSR | 0.611 ± 0.014
LKGVNPVNLHEL | 0.66 ± 0.039
LKKSEKLSNKII | 0.644 ± 0.041
LKPLRTWLSGSA | 0.719 ± 0.019
LKPPEDPCASRV | 0.677 ± 0.021
LKYEGPKYHMKR | 0.691 ± 0.061
LLAGGDVSGVGV | 0.695 ± 0.015
LLCHLSPSSSPI | 0.786 ± 0.068
LLCLKIGASWSK | 0.674 ± 0.028
